For assay [1], the target named is RBD of SARS-CoV-2 Omicron BA.2 (SARS-CoV-2 Omicron BA.2, D405N | R408S | E484 to A484 | Q493R). Nature of the assay: cell-based or functional assay.
Assay [2] addresses RBD of SARS-CoV-2 Omicron BA.1 (SARS-CoV-2 Omicron BA.1, E484 to A484 | Q493R | Q498R | N501Y). Nature of the assay: cell-based or functional assay.

B1: JM-1A N59F mutant (antibody, V domains shown)
VH: QVQLQQSGPGLVKPSGTLSLTCAVSGASISSGDWWSWVRQSPGRGLEWIGGIFHSGTTFYSPSLKSRVTMSVDQPKNQFSLHLTSVTAADTAVYYCARMRGIFDYWGQGTLVTVSS
VL: DIQLTQSPSSLSVSVGDRVTITCRASQAISNSLAWYQQKPGKAPKLLLYAASTLESGVPSRFSGSGSGTDFTLTISSLQPEDFATYYCQHYYSTPFFGGGTKVEIK
On to B1, for which the “IC50, neutralisation of pseudotyped lentivirus with Omicron BA.2 spike” value in assay [1] is 11 ng/mL. Further, the “IC50, neutralisation of pseudotyped lentivirus with Omicron BA.1 spike” value in assay [2] was determined as 18 ng/mL.

B2: JM-1A-G32F (antibody, V domains shown)
VH: QVQLQQSGPGLVKPSGTLSLTCAVSGASISSFDWWSWVRQSPGRGLEWIGGIFHSGTTNYSPSLKSRVTMSVDQPKNQFSLHLTSVTAADTAVYYCARMRGIFDYWGQGTLVTVSS
VL: DIQLTQSPSSLSVSVGDRVTITCRASQAISNSLAWYQQKPGKAPKLLLYAASTLESGVPSRFSGSGSGTDFTLTISSLQPEDFATYYCQHYYSTPFFGGGTKVEIK
Regarding B2, the “IC50, neutralisation of pseudotyped lentivirus with Omicron BA.2 spike” value in assay [1] stood at 30 ng/mL. Also, the “IC50, neutralisation of pseudotyped lentivirus with Omicron BA.1 spike” value in assay [2] amounted to 19 ng/mL.

Values taken from article PMC11192315 (PLOS Pathogens, 2024).
